Measured values: PMC5462531

Experiments:
[1] = molecular target: Rbx1-Cul2, dimeric complex of full-length Rbx1 and full-length Cullin-2 (wild type) (human) (UniProt Q13617); test: ITC; VBC or SBC proteins (200 μM) titrated into Rbx1-Cul2 (20 μM), 303 K; 100 mM Bis tris propane pH 8.0, 50 mM NaCl, 2 mM TCEP; one-set-of-sites model
[2] = molecular target: SBC, trimeric complex of SOCS2, Elongin B and Elongin C (wild type) (UniProt O14508); test: ITC; Cul5NTD titrated into VBC or SBC proteins (Figure 7D: 200 μM into 20 μM, 303 K); 100 mM Bis tris propane pH 8.0, 50 mM NaCl, 2 mM TCEP; one-set-of-sites model
[3] = molecular target: V^QRYBC, VBC with the pVHL triple mutation K159Q, S183R, D187Y (human) (UniProt P40337); test: as above
[4] = molecular target: S^KSDBC, SBC with the SOCS2 triple mutation Q164K, R186S, Y190D (UniProt O14508); test: as above

Cul5NTD, N-terminal domain of Cullin-5 (residues 1-386), sequence (Q93034 1-386): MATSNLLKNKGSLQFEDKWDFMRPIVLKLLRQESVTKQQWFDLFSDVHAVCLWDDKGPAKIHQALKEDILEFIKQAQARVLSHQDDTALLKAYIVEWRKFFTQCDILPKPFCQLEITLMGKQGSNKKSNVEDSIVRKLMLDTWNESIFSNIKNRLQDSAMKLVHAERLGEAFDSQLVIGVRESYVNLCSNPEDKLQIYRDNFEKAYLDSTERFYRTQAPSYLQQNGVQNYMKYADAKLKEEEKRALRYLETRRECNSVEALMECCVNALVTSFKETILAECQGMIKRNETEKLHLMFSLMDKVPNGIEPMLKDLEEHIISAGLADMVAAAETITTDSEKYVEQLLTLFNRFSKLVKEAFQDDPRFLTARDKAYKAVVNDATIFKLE
Rbx1-Cul2, dimeric complex of full-length Rbx1 and full-length Cullin-2 (wild type) (human), sequence (Q13617 whole entry, chain 1 of 2): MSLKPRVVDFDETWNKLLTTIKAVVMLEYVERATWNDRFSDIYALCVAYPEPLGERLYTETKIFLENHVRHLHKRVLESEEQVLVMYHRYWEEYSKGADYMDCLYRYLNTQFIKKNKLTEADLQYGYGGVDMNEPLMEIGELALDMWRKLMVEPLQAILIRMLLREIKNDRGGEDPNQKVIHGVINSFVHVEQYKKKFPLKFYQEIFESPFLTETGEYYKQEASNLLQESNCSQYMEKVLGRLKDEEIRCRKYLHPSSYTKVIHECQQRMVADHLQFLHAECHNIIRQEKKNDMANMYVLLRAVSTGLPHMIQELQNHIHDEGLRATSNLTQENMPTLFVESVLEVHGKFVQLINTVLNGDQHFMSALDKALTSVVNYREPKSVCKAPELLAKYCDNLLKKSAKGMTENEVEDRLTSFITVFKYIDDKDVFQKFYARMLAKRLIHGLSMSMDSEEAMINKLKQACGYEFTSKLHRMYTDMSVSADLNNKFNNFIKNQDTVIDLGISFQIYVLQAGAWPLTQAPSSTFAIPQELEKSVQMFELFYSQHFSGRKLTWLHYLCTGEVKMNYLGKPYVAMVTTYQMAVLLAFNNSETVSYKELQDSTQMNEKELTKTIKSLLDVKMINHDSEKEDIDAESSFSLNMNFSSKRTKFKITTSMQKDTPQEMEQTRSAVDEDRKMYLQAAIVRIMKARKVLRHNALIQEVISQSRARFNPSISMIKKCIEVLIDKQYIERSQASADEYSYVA
Rbx1-Cul2, dimeric complex of full-length Rbx1 and full-length Cullin-2 (wild type) (human), sequence (P62877 whole entry, chain 2 of 2, further chain): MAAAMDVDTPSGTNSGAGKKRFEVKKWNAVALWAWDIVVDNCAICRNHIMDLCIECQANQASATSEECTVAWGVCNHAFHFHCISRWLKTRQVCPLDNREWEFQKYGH

| Kd [1] | Kd [2] | Kd [3] | Kd [4] | Substance |
| --- | --- | --- | --- | --- |
| 2.5 µM |  |  |  | S^KSDBC, SBC with the SOCS2 triple mutation Q164K, R186S, Y190D (from UniProt O14508 32-198; Q15370 1-104; Q15369 17-112) (complex; other documents disagree on this pair) |
|  | 0.01 µM | 2.9 µM | 0.25 µM | Cul5NTD, N-terminal domain of Cullin-5 (residues 1-386) (from UniProt Q93034 1-386) (domain or fragment) |
